In general, Kd refers to the concentration at which binding is half-saturated. High values mean a looser complex, low ones a tighter complex.

For experiment [1], the target named is MD2-GFP (UniProt Q9Y6Y9). The experiment can be described thus: MST; secreted MD2-GFP in the culture supernatant of transfected 293 cells grown in suspension; CnB titrated in 16 1:1 dilutions.
Experiment [2] addresses CD14-GFP (full-length membrane-anchored CD14 from transfected HEK293 lysates) (UniProt P08571). In words: MST; GFP-tagged receptors in lysates of transfected HEK293 cells (RIPA buffer), diluted according to fluorescence intensity; CnB titrated in 16 1:1 dilutions; 25 °C.
In experiment [3] the target is MD2-GFP (UniProt Q9Y6Y9). Described as above.
In experiment [4] the target is TLR4-GFP (full-length TLR4 from transfected HEK293 lysates) (UniProt O00206). Described as above.
Sequence of TLR4-GFP (full-length TLR4 from transfected HEK293 lysates) (O00206 24-839): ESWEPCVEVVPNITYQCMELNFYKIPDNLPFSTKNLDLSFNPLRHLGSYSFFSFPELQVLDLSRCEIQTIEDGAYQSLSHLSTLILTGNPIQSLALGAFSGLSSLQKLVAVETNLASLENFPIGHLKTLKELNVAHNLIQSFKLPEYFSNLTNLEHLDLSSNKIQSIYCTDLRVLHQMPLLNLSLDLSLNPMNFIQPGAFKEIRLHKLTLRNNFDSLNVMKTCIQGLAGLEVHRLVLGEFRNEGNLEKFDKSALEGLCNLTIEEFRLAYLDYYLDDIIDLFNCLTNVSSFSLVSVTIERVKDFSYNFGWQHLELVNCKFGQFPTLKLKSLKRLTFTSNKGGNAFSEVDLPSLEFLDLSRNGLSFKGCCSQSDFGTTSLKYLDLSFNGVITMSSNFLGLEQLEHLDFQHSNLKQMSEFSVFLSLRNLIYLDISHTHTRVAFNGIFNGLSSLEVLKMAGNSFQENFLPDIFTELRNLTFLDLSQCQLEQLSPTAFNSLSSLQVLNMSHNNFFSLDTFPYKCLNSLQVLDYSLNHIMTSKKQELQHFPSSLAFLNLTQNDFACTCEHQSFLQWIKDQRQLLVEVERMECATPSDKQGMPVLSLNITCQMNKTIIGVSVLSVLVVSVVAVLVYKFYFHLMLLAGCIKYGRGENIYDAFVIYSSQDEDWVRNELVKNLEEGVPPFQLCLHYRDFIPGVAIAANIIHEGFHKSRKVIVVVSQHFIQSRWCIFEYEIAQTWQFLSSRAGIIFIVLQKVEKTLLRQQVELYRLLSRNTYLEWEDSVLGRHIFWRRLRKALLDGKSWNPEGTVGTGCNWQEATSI

Sequence of recombinant calcineurin B (P63098 whole entry): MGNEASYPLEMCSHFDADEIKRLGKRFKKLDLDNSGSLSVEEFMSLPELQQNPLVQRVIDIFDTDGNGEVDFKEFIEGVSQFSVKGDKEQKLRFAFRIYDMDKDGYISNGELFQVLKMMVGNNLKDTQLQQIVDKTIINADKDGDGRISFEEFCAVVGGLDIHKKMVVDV
Sequence of MD2-GFP (Q9Y6Y9 19-160): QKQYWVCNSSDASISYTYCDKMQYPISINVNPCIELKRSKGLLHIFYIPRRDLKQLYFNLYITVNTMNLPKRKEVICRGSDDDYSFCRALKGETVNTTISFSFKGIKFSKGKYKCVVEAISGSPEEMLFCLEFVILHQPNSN
Sequence of CD14-GFP (full-length membrane-anchored CD14 from transfected HEK293 lysates) (P08571 20-367): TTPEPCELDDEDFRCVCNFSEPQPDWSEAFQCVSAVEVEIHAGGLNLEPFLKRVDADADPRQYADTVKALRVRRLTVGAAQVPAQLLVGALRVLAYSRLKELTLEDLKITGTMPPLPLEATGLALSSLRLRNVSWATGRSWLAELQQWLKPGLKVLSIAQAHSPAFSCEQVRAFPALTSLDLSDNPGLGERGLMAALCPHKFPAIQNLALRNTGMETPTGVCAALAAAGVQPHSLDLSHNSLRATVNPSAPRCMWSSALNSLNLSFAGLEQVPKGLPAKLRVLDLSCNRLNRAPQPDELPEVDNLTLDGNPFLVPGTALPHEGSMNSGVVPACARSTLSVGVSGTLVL

For the substance “recombinant calcineurin B (from UniProt P63098 1-170) (natural protein; other documents disagree on this pair)”, the Kd was determined as 74 µM with MD2-GFP [1], 34.8 µM in experiment [2], 7.43 µM with MD2-GFP [3] and 6.5 µM in experiment [4].

The values are drawn from PMC4835703.
